Source: the supplement of paper PMC10065799, “High-throughput profiling of sequence recognition by tyrosine kinases and SH2 domains using bacterial peptide display” (eLife, 2023)

Tests used:
[1] = tested on: AncSZ; test: phosphorylation enrichment, bacterial display (enrichment ratio); higher = better substrate or ligand; peptides without Tyr show the background
[2] = target: EPHB1 (UniProt P54762); test: as above
[3] = target: EPHB2 (UniProt P29323); test: as above
[4] = target: FGFR1 (UniProt P11362); test: as above
FGFR1, sequence (P11362 whole entry, looked up): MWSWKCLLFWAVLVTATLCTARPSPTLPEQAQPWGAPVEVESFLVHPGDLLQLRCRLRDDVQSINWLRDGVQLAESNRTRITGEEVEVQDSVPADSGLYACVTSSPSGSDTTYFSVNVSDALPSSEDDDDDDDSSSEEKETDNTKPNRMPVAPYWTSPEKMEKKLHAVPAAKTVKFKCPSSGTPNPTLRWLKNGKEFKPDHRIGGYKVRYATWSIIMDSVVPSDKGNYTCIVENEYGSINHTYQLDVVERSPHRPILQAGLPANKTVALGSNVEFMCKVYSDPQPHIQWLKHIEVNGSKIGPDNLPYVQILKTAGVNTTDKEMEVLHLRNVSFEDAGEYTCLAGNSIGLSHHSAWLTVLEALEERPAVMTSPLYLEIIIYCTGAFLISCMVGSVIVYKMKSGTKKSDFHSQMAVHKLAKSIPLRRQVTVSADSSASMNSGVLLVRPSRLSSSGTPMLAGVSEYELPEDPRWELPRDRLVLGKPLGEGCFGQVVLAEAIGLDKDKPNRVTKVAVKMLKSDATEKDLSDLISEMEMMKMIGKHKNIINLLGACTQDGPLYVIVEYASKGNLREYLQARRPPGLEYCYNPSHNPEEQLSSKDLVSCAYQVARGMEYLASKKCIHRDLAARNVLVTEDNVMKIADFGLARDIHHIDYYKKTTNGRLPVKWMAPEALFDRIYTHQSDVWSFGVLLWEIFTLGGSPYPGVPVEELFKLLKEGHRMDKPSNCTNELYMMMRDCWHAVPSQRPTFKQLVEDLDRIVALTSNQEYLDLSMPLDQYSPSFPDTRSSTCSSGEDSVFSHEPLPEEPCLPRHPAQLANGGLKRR

[5] = target: FGFR3 (UniProt P22607); test: as above
FGFR3, sequence (P22607 whole entry, looked up): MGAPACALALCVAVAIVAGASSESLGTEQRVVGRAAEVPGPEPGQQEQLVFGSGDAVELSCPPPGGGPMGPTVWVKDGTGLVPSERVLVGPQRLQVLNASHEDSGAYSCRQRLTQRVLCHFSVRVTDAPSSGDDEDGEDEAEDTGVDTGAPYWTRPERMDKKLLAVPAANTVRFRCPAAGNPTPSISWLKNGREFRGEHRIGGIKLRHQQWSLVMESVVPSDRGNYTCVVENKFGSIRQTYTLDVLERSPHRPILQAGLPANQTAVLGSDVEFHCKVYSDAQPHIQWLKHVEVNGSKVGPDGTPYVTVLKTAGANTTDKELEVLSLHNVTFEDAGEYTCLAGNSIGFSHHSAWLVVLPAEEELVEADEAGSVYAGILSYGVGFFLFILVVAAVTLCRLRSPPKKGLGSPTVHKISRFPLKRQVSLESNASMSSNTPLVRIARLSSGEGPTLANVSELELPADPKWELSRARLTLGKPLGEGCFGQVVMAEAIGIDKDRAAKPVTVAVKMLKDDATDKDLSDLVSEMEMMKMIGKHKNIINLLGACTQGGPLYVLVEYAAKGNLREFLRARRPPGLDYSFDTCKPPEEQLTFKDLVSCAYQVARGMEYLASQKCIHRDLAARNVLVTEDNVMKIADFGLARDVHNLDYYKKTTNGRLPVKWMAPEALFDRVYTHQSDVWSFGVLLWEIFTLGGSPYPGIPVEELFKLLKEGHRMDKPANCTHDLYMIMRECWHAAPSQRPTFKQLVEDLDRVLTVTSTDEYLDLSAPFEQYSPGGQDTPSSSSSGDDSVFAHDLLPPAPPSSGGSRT

[6] = tested on: Fer (mouse); test: as above
[7] = target: Fes (UniProt P07332); test: as above
Fes, sequence (P07332 whole entry, looked up): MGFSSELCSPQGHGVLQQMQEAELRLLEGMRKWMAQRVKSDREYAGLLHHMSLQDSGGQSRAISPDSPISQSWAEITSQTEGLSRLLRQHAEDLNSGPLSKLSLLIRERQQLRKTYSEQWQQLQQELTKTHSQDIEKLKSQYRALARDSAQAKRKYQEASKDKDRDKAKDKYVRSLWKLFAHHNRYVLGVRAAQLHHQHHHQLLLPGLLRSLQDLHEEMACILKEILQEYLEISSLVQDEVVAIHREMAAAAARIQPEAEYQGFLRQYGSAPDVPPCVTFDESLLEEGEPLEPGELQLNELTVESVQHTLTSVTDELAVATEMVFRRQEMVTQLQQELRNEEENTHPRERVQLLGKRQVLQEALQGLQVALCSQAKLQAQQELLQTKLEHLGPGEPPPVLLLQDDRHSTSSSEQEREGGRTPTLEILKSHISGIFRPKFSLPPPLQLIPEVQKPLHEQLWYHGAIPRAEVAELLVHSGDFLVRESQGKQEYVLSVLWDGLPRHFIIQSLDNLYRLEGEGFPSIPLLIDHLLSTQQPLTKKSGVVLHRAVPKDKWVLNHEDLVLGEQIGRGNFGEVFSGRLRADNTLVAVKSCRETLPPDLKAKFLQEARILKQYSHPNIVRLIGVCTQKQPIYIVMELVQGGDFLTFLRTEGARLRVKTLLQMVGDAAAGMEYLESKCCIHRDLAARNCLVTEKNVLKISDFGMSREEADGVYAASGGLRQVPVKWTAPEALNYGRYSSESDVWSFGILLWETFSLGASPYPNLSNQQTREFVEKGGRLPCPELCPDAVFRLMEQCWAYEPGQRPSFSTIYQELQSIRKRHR

[8] = target: Fyn (UniProt P06241); test: as above
[9] = target: Hck (UniProt P08631); test: as above
Hck, sequence (P08631 whole entry, looked up): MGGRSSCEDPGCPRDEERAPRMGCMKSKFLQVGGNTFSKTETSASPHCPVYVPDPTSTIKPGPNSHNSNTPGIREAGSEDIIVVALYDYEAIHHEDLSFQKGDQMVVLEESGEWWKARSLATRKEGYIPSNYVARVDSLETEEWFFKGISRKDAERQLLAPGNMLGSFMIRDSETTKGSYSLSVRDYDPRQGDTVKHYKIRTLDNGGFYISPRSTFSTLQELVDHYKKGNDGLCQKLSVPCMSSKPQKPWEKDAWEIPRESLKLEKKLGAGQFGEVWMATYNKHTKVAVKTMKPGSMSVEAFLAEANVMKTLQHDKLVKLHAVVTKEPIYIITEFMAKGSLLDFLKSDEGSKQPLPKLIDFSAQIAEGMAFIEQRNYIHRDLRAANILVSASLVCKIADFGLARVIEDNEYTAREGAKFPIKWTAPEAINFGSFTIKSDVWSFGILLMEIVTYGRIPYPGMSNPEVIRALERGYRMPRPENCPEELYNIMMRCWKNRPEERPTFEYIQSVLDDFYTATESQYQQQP

[10] = target: Jak2 (UniProt O60674); test: as above
Jak2, sequence (O60674 whole entry, looked up): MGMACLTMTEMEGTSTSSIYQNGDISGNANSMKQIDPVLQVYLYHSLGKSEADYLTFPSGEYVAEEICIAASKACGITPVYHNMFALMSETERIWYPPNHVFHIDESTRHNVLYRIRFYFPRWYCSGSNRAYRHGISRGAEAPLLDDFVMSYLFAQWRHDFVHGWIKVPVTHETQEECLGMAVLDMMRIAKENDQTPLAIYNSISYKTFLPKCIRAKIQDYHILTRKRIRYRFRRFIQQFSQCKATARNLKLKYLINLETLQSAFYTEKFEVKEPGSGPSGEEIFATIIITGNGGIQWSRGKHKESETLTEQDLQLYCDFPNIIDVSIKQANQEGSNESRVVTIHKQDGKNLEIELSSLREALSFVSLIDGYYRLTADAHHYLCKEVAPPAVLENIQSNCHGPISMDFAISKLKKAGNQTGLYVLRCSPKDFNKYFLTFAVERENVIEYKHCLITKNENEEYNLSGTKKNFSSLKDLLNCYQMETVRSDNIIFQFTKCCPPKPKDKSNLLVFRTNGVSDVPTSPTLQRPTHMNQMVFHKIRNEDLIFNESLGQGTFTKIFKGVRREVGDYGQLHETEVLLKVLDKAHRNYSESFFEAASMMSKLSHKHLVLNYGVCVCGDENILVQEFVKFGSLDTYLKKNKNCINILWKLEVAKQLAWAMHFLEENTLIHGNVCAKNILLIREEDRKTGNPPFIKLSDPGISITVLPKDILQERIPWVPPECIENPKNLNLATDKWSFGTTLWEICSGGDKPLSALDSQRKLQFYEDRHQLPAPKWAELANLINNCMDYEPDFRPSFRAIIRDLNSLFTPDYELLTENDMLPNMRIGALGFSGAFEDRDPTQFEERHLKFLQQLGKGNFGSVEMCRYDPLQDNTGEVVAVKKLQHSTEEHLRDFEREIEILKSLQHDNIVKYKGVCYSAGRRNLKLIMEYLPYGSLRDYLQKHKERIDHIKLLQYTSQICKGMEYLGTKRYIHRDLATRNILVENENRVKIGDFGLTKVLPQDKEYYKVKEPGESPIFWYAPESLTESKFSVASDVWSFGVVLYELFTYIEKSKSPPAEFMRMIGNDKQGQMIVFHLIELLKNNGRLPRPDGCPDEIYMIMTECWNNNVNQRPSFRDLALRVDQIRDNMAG

[11] = target: MERTK (UniProt Q12866); test: as above
[12] = tested on: c-Abl (mouse); test: as above
[13] = tested on: c-Src; test: as above
[14] = target: Grb2 SH2 (UniProt P62993); test: SH2 binding enrichment of the phosphorylated peptide, bacterial display (enrichment ratio); higher = better substrate or ligand; peptides without Tyr show the background
[15] = target: SHP2-C SH2; test: as above
[16] = target: c-Src SH2; test: as above
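Throughout, for SH2 binding enrichment of the phosphorylated peptide, bacterial display: peptide library displayed on the E. coli surface as eCPX fusions, selected cells deep-sequenced, score is each peptide's frequency after selection divided by its frequency in the input.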
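Throughout, for phosphorylation enrichment, bacterial display: 11-residue human phosphosite peptides and single-mutation variants displayed on the E. coli surface, counted by deep sequencing, each peptide's frequency after selection divided by its frequency in the unselected input library; frequency after pTyr selection over input frequency; kinase dosed for 20-30% of maximal phosphorylation in three min.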

EPHB1, sequence (P54762 whole entry, looked up): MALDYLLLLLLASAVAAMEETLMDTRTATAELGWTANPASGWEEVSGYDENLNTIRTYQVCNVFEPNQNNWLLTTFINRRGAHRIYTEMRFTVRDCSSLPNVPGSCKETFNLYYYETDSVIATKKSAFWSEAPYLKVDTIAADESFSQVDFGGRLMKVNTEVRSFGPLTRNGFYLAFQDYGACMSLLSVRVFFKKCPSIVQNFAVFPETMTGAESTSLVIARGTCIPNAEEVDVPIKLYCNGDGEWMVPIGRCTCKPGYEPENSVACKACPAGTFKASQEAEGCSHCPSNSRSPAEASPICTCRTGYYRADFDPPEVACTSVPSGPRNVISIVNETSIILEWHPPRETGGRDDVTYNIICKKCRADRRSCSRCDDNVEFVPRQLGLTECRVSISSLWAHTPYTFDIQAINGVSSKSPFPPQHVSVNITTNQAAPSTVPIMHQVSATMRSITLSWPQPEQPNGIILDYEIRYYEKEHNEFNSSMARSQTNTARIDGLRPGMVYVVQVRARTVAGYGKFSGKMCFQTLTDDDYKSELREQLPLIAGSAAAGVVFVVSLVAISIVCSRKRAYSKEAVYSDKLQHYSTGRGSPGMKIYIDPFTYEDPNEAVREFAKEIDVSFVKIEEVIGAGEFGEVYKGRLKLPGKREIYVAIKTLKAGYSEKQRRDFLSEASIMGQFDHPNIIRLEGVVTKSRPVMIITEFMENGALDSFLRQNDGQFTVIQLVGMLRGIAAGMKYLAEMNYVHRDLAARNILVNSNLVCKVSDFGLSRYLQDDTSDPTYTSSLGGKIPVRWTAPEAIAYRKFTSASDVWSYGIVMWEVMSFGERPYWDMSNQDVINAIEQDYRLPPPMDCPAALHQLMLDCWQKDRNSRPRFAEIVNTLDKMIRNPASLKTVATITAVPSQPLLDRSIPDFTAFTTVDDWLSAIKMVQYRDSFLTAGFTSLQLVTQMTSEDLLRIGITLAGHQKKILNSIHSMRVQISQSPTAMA

Sequence | SH2 binding enrichment [14] | SH2 binding enrichment [15] | SH2 binding enrichment [16] | phosphorylation enrichment [1] | phosphorylation enrichment [2] | phosphorylation enrichment [3] | phosphorylation enrichment [4] | phosphorylation enrichment [5] | phosphorylation enrichment [6] | phosphorylation enrichment [7] | phosphorylation enrichment [8] | phosphorylation enrichment [9] | phosphorylation enrichment [10] | phosphorylation enrichment [11] | phosphorylation enrichment [12] | phosphorylation enrichment [13]
GGRIDYIAGLV [APRT_Y60_D65V] | 0.692 | 0.582 | 0.382 | 1.19 | 0.562 | 0.604 | 0.496 | 0.717 | 0.715 | 1.11 | 0.418 | 0.568 | 0.871 | 0.389 | 0.573 | 0.423
LSALDYKIFYY [WDPCP_Y210] | 1.03 | 0.868 | 0.956 | 1.18 | 0.634 | 0.602 | 0.816 | 0.928 | 0.404 | 1.18 | 0.511 | 0.499 | 1.29 | 0.365 | 0.787 | 0.495
SSSGAYGGGYG [KRT19_Y61] | 0.861 | 0.639 | 0.506 | 0.454 | 0.365 | 0.403 | 0.353 | 0.367 | 0.364 | 0.526 | 0.359 | 0.434 | 0.346 | 0.34 | 0.386 | 0.377
FSQQTYCRVSN [ABCD1_Y180_Y181C] | 0.817 | 0.688 | 1.02 | 0.875 | 3.39 | 2.1 | 0.538 | 0.644 | 0.558 | 0.981 | 0.557 | 1.34 | 0.764 | 0.745 | 0.76 | 0.881
HRAVEYLLMGI [RAD23A_Y197_T200M] | 1.35 | 1.55 | 1.11 | 0.976 | 0.479 | 0.419 | 1.19 | 1.02 | 0.351 | 0.802 | 0.429 | 0.552 | 0.921 | 0.471 | 0.665 | 0.441
RRESPYGGGGG [FUS_Y526_R524S] | 0.907 | 0.362 | 0.566 | 0.636 | 0.46 | 0.546 | 0.402 | 0.414 | 0.436 | 0.611 | 0.451 | 0.596 | 0.74 | 0.501 | 0.569 | 0.519
SVTCTYPPALN [TP53_Y126_S127P] | 0.865 | 0.617 | 0.448 | 0.886 | 0.471 | 0.578 | 0.502 | 0.578 | 0.473 | 0.873 | 0.448 | 0.557 | 1.07 | 0.477 | 0.97 | 0.485
VNYGAYINYFK [GLB1_Y488_D491Y] | 3.13 | 1.12 | 1.23 | 0.894 | 1.9 | 2.03 | 0.905 | 0.986 | 0.488 | 1.06 | 1.22 | 1.1 | 1.7 | 0.629 | 0.941 | 1.08
PVQAAYQKVVA [HBB_Y131] | 0.795 | 0.516 | 0.706 | 0.41 | 0.694 | 0.536 | 0.645 | 0.591 | 0.557 | 0.438 | 0.418 | 0.505 | 0.37 | 0.716 | 0.716 | 0.471
AELKLYSGAQT [ZAP70_Y178_R175L] | 0.679 | 0.637 | 0.518 | 0.877 | 0.567 | 0.571 | 0.39 | 0.595 | 0.485 | 0.956 | 0.455 | 0.646 | 0.82 | 0.395 | 0.526 | 0.362
RRIHSYRCHLW [VHL_Y112_G114C] | 0.707 | 0.61 | 0.651 | 0.967 | 0.564 | 0.477 | 0.642 | 0.641 | 0.68 | 1.25 | 0.767 | 0.629 | 0.762 | 0.786 | 0.822 | 0.748
SIKDKYVTVLF [KCNH2_Y611_A614V_YF] | 1.04 | 10.8 | 0.669 | 0.763 | 0.481 | 0.48 | 0.482 | 0.646 | 0.392 | 0.91 | 0.442 | 0.546 | 0.743 | 0.375 | 0.549 | 0.361
LVTAWYIGFLC [KCNQ2_Y237] | 1.16 | 0.712 | 0.622 | 2.1 | 1.12 | 0.95 | 0.872 | 1.3 | 0.873 | 2.62 | 0.748 | 1.11 | 2.67 | 0.629 | 2.12 | 1.15
TIEDSYRKQVV [KRAS_Y40] | 0.818 | 0.6 | 0.428 | 0.62 | 0.383 | 0.371 | 0.398 | 0.561 | 0.348 | 0.79 | 0.388 | 0.358 | 0.703 | 0.369 | 0.599 | 0.426
GRQWNYVASMS [KLHL4_Y552] | 1.04 | 0.966 | 0.767 | 0.799 | 0.508 | 0.549 | 0.434 | 0.539 | 0.355 | 0.754 | 0.419 | 0.4 | 0.618 | 0.395 | 0.719 | 0.371
NREGVYTVSAP [TGFBI_Y537_F540S] | 0.834 | 0.769 | 0.472 | 0.757 | 0.537 | 0.517 | 0.462 | 0.523 | 1.12 | 0.705 | 10.9 | 2.34 | 0.719 | 1.16 | 0.565 | 8.38
RNLDTYQKRLR [PLA2G2D_Y126] | 0.918 | 0.504 | 0.629 | 0.617 | 0.831 | 0.279 | 0.373 | 0.484 | 0.307 | 0.61 | 0.452 | 0.55 | 0.661 | 0.474 | 0.762 | 0.463
TTKAKYKTPIF [PLD2_Y573_T577I_YF] | 1.06 | 1.14 | 0.764 | 0.588 | 0.38 | 0.263 | 0.481 | 0.572 | 0.487 | 0.717 | 0.499 | 0.411 | 0.659 | 0.495 | 0.632 | 0.434
GDSVQYNRTTD [MLPH_Y454_P451S] | 0.718 | 0.704 | 0.481 | 0.612 | 0.486 | 0.38 | 0.487 | 0.498 | 0.457 | 0.999 | 0.469 | 0.498 | 0.728 | 0.419 | 0.548 | 0.422
PVQAAYQKVVD [HBB_Y131_A136D] | 1.12 | 0.697 | 0.719 | 0.831 | 0.493 | 1.06 | 0.655 | 0.515 | 0.384 | 1.01 | 0.621 | 0.931 | 0.577 | 0.38 | 0.432 | 0.458
SVMAEYGLFRA [VSX2_Y219_G223R_YF] | 0.773 | 0.627 | 0.444 | 0.77 | 0.481 | 0.513 | 0.514 | 0.538 | 0.513 | 0.661 | 6.8 | 5.72 | 0.505 | 0.51 | 0.589 | 6.04

Continued, in another order:

SH2 binding enrichment [14] | SH2 binding enrichment [15] | SH2 binding enrichment [16] | Sequence | phosphorylation enrichment [1] | phosphorylation enrichment [2] | phosphorylation enrichment [3] | phosphorylation enrichment [4] | phosphorylation enrichment [5] | phosphorylation enrichment [6] | phosphorylation enrichment [7] | phosphorylation enrichment [8] | phosphorylation enrichment [9] | phosphorylation enrichment [10] | phosphorylation enrichment [11] | phosphorylation enrichment [12] | phosphorylation enrichment [13]
0.963 | 0.608 | 0.552 | TLARLYHRDST [LRIG1_Y1029_P1031R] | 0.761 | 0.501 | 0.539 | 0.563 | 0.729 | 0.71 | 0.844 | 0.565 | 0.409 | 0.61 | 0.522 | 0.761 | 0.449
6.49 | 0.728 | 1.02 | EHLNRYINDTF [TTLL10_Y446_S448N] | 0.853 | 0.567 | 0.608 | 0.525 | 0.654 | 0.53 | 1.08 | 0.467 | 0.49 | 1.08 | 0.46 | 0.751 | 0.517
0.729 | 0.768 | 1.18 | KSSDVYVSYDY [SORL1_Y136] | 1.16 | 1.38 | 1.92 | 4.12 | 2.64 | 0.914 | 1.07 | 5.35 | 2.18 | 1.08 | 1.97 | 0.712 | 4.15
0.775 | 0.563 | 0.532 | EVEPTYVVLYD [ERCC4_Y577_R576T] | 1.76 | 10.9 | 13.7 | 5.87 | 4.01 | 1.49 | 1.13 | 6 | 3 | 1.1 | 3.54 | 0.864 | 4.73
1.12 | 1.12 | 0.888 | LSVISYDLGMF [GBA3_Y174_M172I] | 1.2 | 0.742 | 0.72 | 0.328 | 0.581 | 0.415 | 1.27 | 0.436 | 0.481 | 1.21 | 0.424 | 0.961 | 0.586
1.04 | 1.07 | 0.78 | RTVPLYESLRK [DDB1_Y718_P721L] | 0.668 | 23 | 26.1 | 0.466 | 0.437 | 11.3 | 1.15 | 11.7 | 12.4 | 0.547 | 8.17 | 1.07 | 8.53
0.744 | 0.563 | 0.682 | ATHSRYRLNDY [CLDN14_Y233_G232R] | 0.562 | 0.484 | 0.371 | 0.387 | 0.468 | 0.37 | 0.735 | 0.442 | 0.505 | 0.406 | 0.459 | 0.476 | 0.417
0.865 | 0.787 | 0.565 | NKHTTYTMEHI [ACTN1_Y708_N707T] | 0.527 | 0.394 | 0.4 | 0.395 | 0.445 | 0.397 | 0.575 | 0.419 | 0.451 | 0.447 | 0.434 | 0.514 | 0.45
1.07 | 0.856 | 1.2 | GLIPAYHRVIM [NMNAT1_Y64] | 0.881 | 0.571 | 0.504 | 0.572 | 0.612 | 0.502 | 0.963 | 0.558 | 0.543 | 1.16 | 0.408 | 0.662 | 0.414
0.957 | 0.746 | 0.36 | REETTYLPLTS [ICAM3_Y527_S525T] | 1.39 | 0.656 | 0.548 | 0.74 | 0.644 | 0.608 | 1.05 | 0.864 | 1.7 | 1.03 | 0.901 | 0.781 | 1.61
0.727 | 0.56 | 0.38 | ALADKYHGGGG [HBB_Y146_H144D] | 0.467 | 0.287 | 0.374 | 0.396 | 0.402 | 0.375 | 0.517 | 0.39 | 0.355 | 0.439 | 0.322 | 0.423 | 0.318
1.02 | 0.675 | 0.441 | RQNRFYDAKVR [FKBP6_Y188] | 0.687 | 0.226 | 0.432 | 0.506 | 0.496 | 0.605 | 0.715 | 0.427 | 0.606 | 0.81 | 0.672 | 0.658 | 1.18
